Where two headings read alike, the source gives them in different places.
What was measured:
[1] = target: T1, Prostate specific membrane antigen (PSMA) (human, UniProt Q04609 1-750); experiment: flow cytometry on LNCAP cells, FITC anti-human IgG
T1 construct: whole, on cells; The background says that PSMA is a homodimer when enzymatically active; also called glutamate carboxypeptidase II; GCPII
Procedure: (§1) Pre-confluent LNCAP cells at 80-90% confluence were washed and detached from the plates with trypsin prior to 1-hour incubation at 37° C., 5% CO₂ in the flasks to restore cell surface proteins. Cells were washed and adjusted to 1×10₆ cells/ml in staining media (RPMI-1640, 25 mM HEPES, 3% h.i. FBS and 0.02% sodium azide). Various concentrations of the monoclonal antibody samples (murine wt and 16 humanized variants) ranging from 50 to 0.0032 μg/ml were prepared in staining media and incubated with the cells in pre-cooled 96-well plates for 30 min. on ice to allow antibody binding to the LNCAP cell surface. Subsequently, cells were washed at 4° C. with PBS to remove free antibody, and bound antibody was labelled with FITC goat anti-human IgG H&L preabsorbed (Abcam) secondary antibody for 30 min. on ice. Finally, cells were washed, fixed and FITC fluorescence associated to the antibody bound to the cells was measured by flow cytometry (GUAVA 8HT Cytometer). Data was analyzed using Incyte GuavaSoft 2.7 software (Merck-Millipore). The obtained dose-response data (plotted as log-transformed dose vs. response) typically produced sigmoidal curves with variable slope which were fitted to a 4-parameter logistic dose-response equation using GraphPad Prism software. The EC₅₀ dose, defined as the concentration of antibody that provides half of maximal target cell binding, was used to compare the bioactivity of different antibody variants. Data points represent the average of duplicate wells and standard error of the mean (SEM).

[2] = target: T1, Prostate specific membrane antigen …; experiment: flow cytometry on LNCAP cells, FITC anti-human IgG; remark: listed apart in the source
Procedure: as §1

T1 sequence (Q04609 whole entry): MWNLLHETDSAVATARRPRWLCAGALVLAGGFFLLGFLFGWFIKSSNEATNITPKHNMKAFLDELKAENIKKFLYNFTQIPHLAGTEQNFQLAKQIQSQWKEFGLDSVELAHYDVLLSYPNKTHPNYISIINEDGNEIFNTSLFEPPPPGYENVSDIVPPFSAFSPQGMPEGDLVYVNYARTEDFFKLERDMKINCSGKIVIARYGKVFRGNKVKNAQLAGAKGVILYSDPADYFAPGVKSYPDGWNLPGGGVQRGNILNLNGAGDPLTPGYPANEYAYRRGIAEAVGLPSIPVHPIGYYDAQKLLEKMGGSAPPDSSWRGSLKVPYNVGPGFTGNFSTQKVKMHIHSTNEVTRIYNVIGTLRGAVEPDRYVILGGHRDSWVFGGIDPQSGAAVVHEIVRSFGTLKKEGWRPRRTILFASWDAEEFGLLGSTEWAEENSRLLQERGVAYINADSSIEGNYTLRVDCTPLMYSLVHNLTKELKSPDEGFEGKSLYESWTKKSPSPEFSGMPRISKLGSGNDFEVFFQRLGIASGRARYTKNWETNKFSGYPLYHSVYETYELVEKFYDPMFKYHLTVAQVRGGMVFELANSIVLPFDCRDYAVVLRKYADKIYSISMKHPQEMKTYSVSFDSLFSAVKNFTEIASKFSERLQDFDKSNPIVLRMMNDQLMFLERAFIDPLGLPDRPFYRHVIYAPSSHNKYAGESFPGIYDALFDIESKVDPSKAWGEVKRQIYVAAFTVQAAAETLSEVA

B1: 3F11-var 6 (antibody, human IgG1, kappa, V domains shown)
VH: QVQLVQSGAEVKKPGASVKVSCKASGYTFTYFDINWLRQAPGQGLEWMGGISPGDGNTNYAQKFQGRVTLTIDTSTSTAYMELSSLRSEDTAVYYCARDGNFPYYAMDSWGQGTLVTVSS
VL: DIVMTQSPLSLPVTPGEPASISCRSSQSLVHSNGQTYLHWYLQKPGQSPQLLIYTVSNRFSGVPDRFSGSGSGTDFTLKISRVEAEDVGVYYCSQSTHVPTFGGGTKVEIKR
notes: Expressed from pXC-IgG1zadeltaK and pXC-Kappa vectors
EC50 [1]: 0.219 mg/L
EC50 [2]: 0.219 mg/L

B2: 3F11-var 10 (antibody, human IgG1, kappa, V domains shown)
VH: QVQLVQSGAEVKKPGASVKVSCKASGYTFTYFDINWLRQAPGQGLEWMGGISPGDGNTNYAQKFQGRVTLTIDTSTSTAYMELSSLRSEDTAVYYCARDGNFPYYAMDSWGQGTLVTVSS
VL: DIVMTQSPLSLPVTPGEPASISCRSSQSLVHSSGQTYLHWYLQKPGQSPQLLIYTVSNRFSGVPDRFSGSGSGTDFTLKISRVEAEDVGVYYCSQSTHVPTFGGGTKVEIKR
notes: as for B1
EC50 [1]: 0.284 mg/L
EC50 [2]: 0.284 mg/L

B3: 3F11-var 15 (antibody, human IgG1, kappa, V domains shown)
VH: QVQLVQSGAEVKKPGASVKVSCKASGYTFTYFDINWLRQAPGQGLEWMGGISPGDGNVNYAQKFQGRVTLTIDTSTSTAYMELSSLRSEDTAVYYCARDGNFPYYAMDSWGQGTLVTVSS
VL: DIVMTQSPLSLPVTPGEPASISCRSSQSLVHSSGQTYLHWYQQKPGQSPQLLIYTVSNRASGVPDRFSGSGSGTDFTLKISRVEAEDVGTYYCSQSTHVPTFGGGTKVEIKR
notes: as for B1
EC50 [1]: 0.244 mg/L
EC50 [2]: 0.244 mg/L

B4: 3F11-var 7 (antibody, human IgG1, kappa, V domains shown)
VH: QVQLVQSGAEVKKPGASVKVSCKASGYTFTYFDINWLRQAPGQGLEWMGGISPGDGNVNYAQKFQGRVTLTIDTSTSTAYMELSSLRSEDTAVYYCARDGNFPYYAMDSWGQGTLVTVSS
VL: DIVMTQSPLSLPVTPGEPASISCRSSQSLVHSNGQTYLHWYLQKPGQSPQLLIYTVSNRFSGVPDRFSGSGSGTDFTLKISRVEAEDVGVYYCSQSTHVPTFGGGTKVEIKR
notes: as for B1
EC50 [1]: 0.178 mg/L
EC50 [2]: 0.178 mg/L

B5: 3F11-var 4 (antibody, human IgG1, kappa, V domains shown)
VH: QVQLVQSGAEVKKPGASVKVSCKASGYTFTYFDINWLRQAPGQGLEWMGGISPGDSNVNYAQKFQGRVTLTIDTSTSTAYMELSSLRSEDTAVYYCARDGNFPYYAMDSWGQGTLVTVSS
VL: DIVMTQSPLSLPVTPGEPASISCRSSQSLVHSNGNTYLHWFLQKPGQSPQLLIYTVSNRFSGVPDRFSGSGSGTDFTLKISRVEAEDVGVYFCSQSTHVPTFGGGTKVEIKR
notes: as for B1
EC50 [1]: 0.373 mg/L
EC50 [2]: 0.373 mg/L

B6: 3F11-var 16 (antibody, human IgG1, kappa, V domains shown)
VH: QVQLVQSGAEVKKPGASVKVSCKASGYTFTYFDINWLRQAPGQGLEWMGGISPGDSNVNYAQKFQGRVTLTIDTSTSTAYMELSSLRSEDTAVYYCARDGNFPYYAMDSWGQGTLVTVSS
VL: DIVMTQSPLSLPVTPGEPASISCRSSQSLVHSSGQTYLHWYQQKPGQSPQLLIYTVSNRASGVPDRFSGSGSGTDFTLKISRVEAEDVGTYYCSQSTHVPTFGGGTKVEIKR
notes: as for B1
EC50 [1]: 0.248 mg/L
EC50 [2]: 0.248 mg/L

B7: 3F11-var 8 (antibody, human IgG1, kappa, V domains shown)
VH: QVQLVQSGAEVKKPGASVKVSCKASGYTFTYFDINWLRQAPGQGLEWMGGISPGDSNVNYAQKFQGRVTLTIDTSTSTAYMELSSLRSEDTAVYYCARDGNFPYYAMDSWGQGTLVTVSS
VL: DIVMTQSPLSLPVTPGEPASISCRSSQSLVHSNGQTYLHWYLQKPGQSPQLLIYTVSNRFSGVPDRFSGSGSGTDFTLKISRVEAEDVGVYYCSQSTHVPTFGGGTKVEIKR
notes: as for B1
EC50 [1]: 0.204 mg/L
EC50 [2]: 0.204 mg/L

B8: 3F11-var 3 (antibody, human IgG1, kappa, V domains shown)
VH: QVQLVQSGAEVKKPGASVKVSCKASGYTFTYFDINWLRQAPGQGLEWMGGISPGDGNVNYAQKFQGRVTLTIDTSTSTAYMELSSLRSEDTAVYYCARDGNFPYYAMDSWGQGTLVTVSS
VL: DIVMTQSPLSLPVTPGEPASISCRSSQSLVHSNGNTYLHWFLQKPGQSPQLLIYTVSNRFSGVPDRFSGSGSGTDFTLKISRVEAEDVGVYFCSQSTHVPTFGGGTKVEIKR
notes: as for B1
EC50 [1]: 0.264 mg/L
EC50 [2]: 0.264 mg/L

B9: 3F11-var 2 (antibody, human IgG1, kappa, V domains shown)
VH: QVQLVQSGAEVKKPGASVKVSCKASGYTFTYFDINWLRQAPGQGLEWMGGISPGDGNTNYAQKFQGRVTLTIDTSTSTAYMELSSLRSEDTAVYYCARDGNFPYYAMDSWGQGTLVTVSS
VL: DIVMTQSPLSLPVTPGEPASISCRSSQSLVHSNGNTYLHWFLQKPGQSPQLLIYTVSNRFSGVPDRFSGSGSGTDFTLKISRVEAEDVGVYFCSQSTHVPTFGGGTKVEIKR
notes: as for B1
EC50 [1]: 0.273 mg/L
EC50 [2]: 0.273 mg/L

B10: 3F11-var 11 (antibody, human IgG1, kappa, V domains shown)
VH: QVQLVQSGAEVKKPGASVKVSCKASGYTFTYFDINWLRQAPGQGLEWMGGISPGDGNVNYAQKFQGRVTLTIDTSTSTAYMELSSLRSEDTAVYYCARDGNFPYYAMDSWGQGTLVTVSS
VL: DIVMTQSPLSLPVTPGEPASISCRSSQSLVHSSGQTYLHWYLQKPGQSPQLLIYTVSNRFSGVPDRFSGSGSGTDFTLKISRVEAEDVGVYYCSQSTHVPTFGGGTKVEIKR
notes: as for B1
EC50 [1]: 0.339 mg/L
EC50 [2]: 0.339 mg/L

B11: 3F11-var 14 (antibody, human IgG1, kappa, V domains shown)
VH: QVQLVQSGAEVKKPGASVKVSCKASGYTFTYFDINWLRQAPGQGLEWMGGISPGDGNTNYAQKFQGRVTLTIDTSTSTAYMELSSLRSEDTAVYYCARDGNFPYYAMDSWGQGTLVTVSS
VL: DIVMTQSPLSLPVTPGEPASISCRSSQSLVHSSGQTYLHWYQQKPGQSPQLLIYTVSNRASGVPDRFSGSGSGTDFTLKISRVEAEDVGTYYCSQSTHVPTFGGGTKVEIKR
notes: as for B1
EC50 [1]: 0.272 mg/L
EC50 [2]: 0.272 mg/L

B12: 3F11-var 9 (antibody, human IgG1, kappa, V domains shown)
VH: QVQLVQSGAEVKKPGASVKVSCKASGYTFTYFDINWLRQAPGQGLEWMGGISPGDGNTNYNENFKGRVTLTIDKSTSTAYMELSSLRSEDTAVYFCARDGNFPYYAMDSWGQGTLVTVSS
VL: DIVMTQSPLSLPVTPGEPASISCRSSQSLVHSSGQTYLHWYLQKPGQSPQLLIYTVSNRFSGVPDRFSGSGSGTDFTLKISRVEAEDVGVYYCSQSTHVPTFGGGTKVEIKR
notes: as for B1
EC50 [1]: 0.281 mg/L
EC50 [2]: 0.281 mg/L

B13: 3F11-var 1 (antibody, human IgG1, kappa, V domains shown)
VH: QVQLVQSGAEVKKPGASVKVSCKASGYTFTYFDINWLRQAPGQGLEWMGGISPGDGNTNYNENFKGRVTLTIDKSTSTAYMELSSLRSEDTAVYFCARDGNFPYYAMDSWGQGTLVTVSS
VL: DIVMTQSPLSLPVTPGEPASISCRSSQSLVHSNGNTYLHWFLQKPGQSPQLLIYTVSNRFSGVPDRFSGSGSGTDFTLKISRVEAEDVGVYFCSQSTHVPTFGGGTKVEIKR
notes: as for B1
EC50 [1]: 0.29 mg/L
EC50 [2]: 0.29 mg/L

B14: 3F11-var 12 (antibody, human IgG1, kappa, V domains shown)
VH: QVQLVQSGAEVKKPGASVKVSCKASGYTFTYFDINWLRQAPGQGLEWMGGISPGDSNVNYAQKFQGRVTLTIDTSTSTAYMELSSLRSEDTAVYYCARDGNFPYYAMDSWGQGTLVTVSS
VL: DIVMTQSPLSLPVTPGEPASISCRSSQSLVHSSGQTYLHWYLQKPGQSPQLLIYTVSNRFSGVPDRFSGSGSGTDFTLKISRVEAEDVGVYYCSQSTHVPTFGGGTKVEIKR
notes: as for B1
EC50 [1]: 0.329 mg/L
EC50 [2]: 0.329 mg/L

B15: 3F11-var 5 (antibody, human IgG1, kappa, V domains shown)
VH: QVQLVQSGAEVKKPGASVKVSCKASGYTFTYFDINWLRQAPGQGLEWMGGISPGDGNTNYNENFKGRVTLTIDKSTSTAYMELSSLRSEDTAVYFCARDGNFPYYAMDSWGQGTLVTVSS
VL: DIVMTQSPLSLPVTPGEPASISCRSSQSLVHSNGQTYLHWYLQKPGQSPQLLIYTVSNRFSGVPDRFSGSGSGTDFTLKISRVEAEDVGVYYCSQSTHVPTFGGGTKVEIKR
notes: as for B1
EC50 [1]: 0.304 mg/L
EC50 [2]: 0.304 mg/L

B16: 3F11-var 13 (antibody, human IgG1, kappa, V domains shown)
VH: QVQLVQSGAEVKKPGASVKVSCKASGYTFTYFDINWLRQAPGQGLEWMGGISPGDGNTNYNENFKGRVTLTIDKSTSTAYMELSSLRSEDTAVYFCARDGNFPYYAMDSWGQGTLVTVSS
VL: DIVMTQSPLSLPVTPGEPASISCRSSQSLVHSSGQTYLHWYQQKPGQSPQLLIYTVSNRASGVPDRFSGSGSGTDFTLKISRVEAEDVGTYYCSQSTHVPTFGGGTKVEIKR
notes: as for B1
EC50 [1]: 0.25 mg/L
EC50 [2]: 0.25 mg/L

Source: patent US20230250189A1 (HEIDELBERG PHARMA RESEARCH, published 2023)
